T1: HPV E6 peptide on HLA-A*11:01 (human)
T1 peptide: TTLEQQYNK

B1: TCR010 (TCR, V domains shown)
Valpha: AQSVTQLDSHVSVSEGTPVLLRCNYSSSYSPSLFWYVQHPNKGLQLLLKYTSAATLVKGINGFEAEFKKSETSFHLTKPSAHMSDAAEYFCVVSLSGGYNKLIFGAGTRLAVHP
Vbeta: DSGVTQTPKHLITATGQRVTLRCSPRSGDLSVYWYQQSLDQGLQFLIQYYNGEERAKGNILERFSAQQFPDLHSELNLSSLELGDSALYFCASSVTGSGYTFGSGTRLTVV
B2: TCR013 (TCR, V domains shown)
Valpha: GQQVMQIPQYQHVQEGEDFTTYCNSSTTLSNIQWYKQRPGGHPVFLIQLVKSGEVKKQKRLTFQFGEAKKNSSLHITATQTTDVGTYFCAGPKITGGGNKLTFGTGTQLKVEL
Vbeta: DSGVTQTPKHLITATGQRVTLRCSPRSGDLSVYWYQQSLDQGLQFLIQYYNGEERAKGNILERFSAQQFPDLHSELNLSSLELGDSALYFCASSVGGGPNYGYTFGSGTRLTVV
B3: TCR090 (TCR, V domains shown)
Valpha: GQQVMQIPQYQHVQEGEDFTTYCNSSTTLSNIQWYKQRPGGHPVFLIQLVKSGEVKKQKRLTFQFGEAKKNSSLHITATQLTDVGTYFCAGPVLTGGGNKLTFGTGTQLKVEL
Vbeta: DSGVTQTPRYLITATGQRVTLRCSPRSGDLSVYWYQQSLDQGLQFLIQYYNGEERAKGNILERFSAQQFPDLHSELNLSSLELGDSALYFCASSVGGPNTGELFFGEGSRLTVL
B4: TCR028 (TCR, V domains shown)
Valpha: GQQVMQIPQYQHVQEGEDFTTYCNSSTTLSNIQWYKQRPGGHPVFLIQLVKSGEVKKQKRLTFQFGEAKKNSSLHITATQTTDVGTYFCAGPILTGGGNKLTFGTGTQLKVEL
Vbeta: DSGVTQTPKHLITATGQRVTLRCSPRSGDLSVYWYQQSLDQGLQFLIQYYNGEERAKGNILERFSAQQFPDLHSELNLSSLELGDSALYFCASGLSGPNTGELFFGEGSRLTVL

Target: T1, HPV E6 peptide on HLA-A*11:01
Test: multimer staining

Binder | binding result
B1 | recognises
B2 | recognises
B3 | recognises
B4 | recognises
